Measurements published in the supplement of paper PMC9876800.

Tested on: peptide library, one residue held at a place counted from the S/T acceptor
Experiment: relative phosphorylation of the sub-library (ratio to the mean residue at this position); higher = residue favoured
Conditions: human
In short: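 Purified recombinant kinases were reacted in 384-well plates with biotinylated degenerate peptide sub-libraries, each having one residue fixed at one position around a central Ser/Thr. The reaction mix contained 50 μM peptide plus 50 μM ATP spiked with γ-32P-ATP and ran for 90 min under kinase-specific conditions. Relative sub-library phosphorylation, taken from densitometry of phosphorimaged streptavidin membrane spots, is a ratio to the mean residue at that position.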

CLK2, construct: aa137-498, sequence (P49760 137-498, looked up): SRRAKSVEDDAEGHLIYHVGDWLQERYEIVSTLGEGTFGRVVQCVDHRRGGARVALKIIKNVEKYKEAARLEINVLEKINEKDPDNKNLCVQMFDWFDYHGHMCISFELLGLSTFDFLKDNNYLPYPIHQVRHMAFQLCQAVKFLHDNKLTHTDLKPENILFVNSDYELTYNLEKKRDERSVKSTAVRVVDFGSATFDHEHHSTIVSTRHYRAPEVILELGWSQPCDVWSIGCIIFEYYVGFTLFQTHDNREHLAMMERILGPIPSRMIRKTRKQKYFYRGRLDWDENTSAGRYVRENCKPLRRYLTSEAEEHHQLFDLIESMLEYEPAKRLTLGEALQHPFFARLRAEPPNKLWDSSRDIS
CDK14, construct: Full length, sequence (O94921 whole entry, looked up): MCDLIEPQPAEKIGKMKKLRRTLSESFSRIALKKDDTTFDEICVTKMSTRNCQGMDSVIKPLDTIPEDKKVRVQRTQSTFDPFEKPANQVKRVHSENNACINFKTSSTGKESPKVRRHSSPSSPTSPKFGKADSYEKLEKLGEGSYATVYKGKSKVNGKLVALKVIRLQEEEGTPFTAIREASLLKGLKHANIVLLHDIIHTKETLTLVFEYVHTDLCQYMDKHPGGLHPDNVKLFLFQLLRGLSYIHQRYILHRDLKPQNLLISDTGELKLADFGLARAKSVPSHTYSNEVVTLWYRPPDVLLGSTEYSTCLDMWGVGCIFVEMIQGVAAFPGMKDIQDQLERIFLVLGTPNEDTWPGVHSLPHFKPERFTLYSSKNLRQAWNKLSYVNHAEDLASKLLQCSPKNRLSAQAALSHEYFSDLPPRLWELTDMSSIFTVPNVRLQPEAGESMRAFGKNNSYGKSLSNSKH
DYRK1B, construct: Full length, sequence (Q9Y463 whole entry, looked up): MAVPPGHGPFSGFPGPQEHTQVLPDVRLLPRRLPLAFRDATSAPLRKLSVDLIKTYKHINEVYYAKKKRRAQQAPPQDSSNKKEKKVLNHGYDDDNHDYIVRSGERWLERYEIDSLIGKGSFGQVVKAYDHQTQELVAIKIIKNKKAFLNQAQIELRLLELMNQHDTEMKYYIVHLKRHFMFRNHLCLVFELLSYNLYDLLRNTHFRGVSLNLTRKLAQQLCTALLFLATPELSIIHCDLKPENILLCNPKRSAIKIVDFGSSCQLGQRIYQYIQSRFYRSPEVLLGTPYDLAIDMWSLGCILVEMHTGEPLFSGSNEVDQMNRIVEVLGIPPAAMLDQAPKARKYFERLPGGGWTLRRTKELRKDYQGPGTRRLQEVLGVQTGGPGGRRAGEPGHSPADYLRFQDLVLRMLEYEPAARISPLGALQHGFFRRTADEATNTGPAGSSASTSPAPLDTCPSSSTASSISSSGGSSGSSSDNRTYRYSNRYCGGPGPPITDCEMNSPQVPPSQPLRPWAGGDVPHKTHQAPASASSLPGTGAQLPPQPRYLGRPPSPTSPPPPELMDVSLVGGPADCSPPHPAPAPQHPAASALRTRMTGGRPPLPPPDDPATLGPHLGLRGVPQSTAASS
CSNK1A1, construct: Full length, sequence (P48729 whole entry, looked up): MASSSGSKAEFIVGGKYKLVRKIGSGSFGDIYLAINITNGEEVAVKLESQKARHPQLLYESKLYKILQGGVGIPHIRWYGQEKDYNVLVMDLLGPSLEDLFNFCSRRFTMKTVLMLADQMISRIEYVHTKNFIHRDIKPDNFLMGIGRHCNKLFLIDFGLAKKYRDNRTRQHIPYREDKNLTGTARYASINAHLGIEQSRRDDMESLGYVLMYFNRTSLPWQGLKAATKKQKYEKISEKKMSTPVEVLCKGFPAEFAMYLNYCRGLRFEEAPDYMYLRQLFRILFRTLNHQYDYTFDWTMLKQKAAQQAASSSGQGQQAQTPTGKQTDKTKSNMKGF

CDK14, construct: Full length (from UniProt O94921)
relative phosphorylation
Conditions	at +1	at +2	at +3	at +4	at -1	at -2	at -3	at -4	at -5
A fixed	0.252	0.535	0.827	0.626	0.896	0.722	0.989	0.958	0.859
D fixed	0.129	0.365	0.343	0.472	0.376	0.251	0.328	0.625	0.582
E fixed	0.123	0.292	0.266	0.344	0.366	0.258	0.438	0.592	0.521
F fixed	0.298	0.793	1.44	0.708	0.704	0.777	0.768	0.725	0.798
G fixed	1.29	0.619	0.785	1.64	2.02	0.774	1.29	1.08	1.13
H fixed	0.294	1.19	0.793	1.08	0.835	0.972	0.974	0.978	1.34
I fixed	0.332	1.25	1.03	0.677	0.324	0.749	0.879	1.39	1.22
K fixed	0.38	2	0.937	1.84	1.44	1.14	1.09	1.59	1.78
L fixed	0.392	1.39	2.38	0.74	1.04	1.29	0.839	1.2	1.23
M fixed	0.345	1.1	1.97	0.88	1.36	1.11	0.875	0.942	1.06
N fixed	0.247	0.858	0.6	1.04	0.873	0.701	0.75	1.19	1.15
P fixed	11.4	0.665	1.28	1.07	1.77	2.49	1.43	1.01	0.957
Q fixed	0.286	0.854	0.772	0.935	0.863	0.794	0.756	0.843	0.822
R fixed	0.377	2.41	1.02	2.69	1.92	2.6	3	1.31	1.17
V fixed	0.305	1.05	0.764	0.582	0.421	0.724	0.753	0.717	0.71
W fixed	0.301	0.713	1.09	0.962	0.802	0.995	0.955	1.06	0.823
Y fixed	0.257	0.92	0.698	0.714	0.984	0.648	0.884	0.78	0.865
pThr fixed	0.511	0.842	0.801	0.524	0.457	0.755	0.839	0.879	0.885
pTyr fixed	0.609	0.486	0.841	0.387	0.427	0.42	0.605	0.531	0.697

CLK2, construct: aa137-498 (from UniProt P49760)
relative phosphorylation
Conditions	at +1	at +2	at +3	at +4	at -1	at -2	at -3	at -4	at -5
A fixed	0.537	1.38	0.558	0.879	1.16	1.94	0.571	1.2	1.14
D fixed	0.278	1.66	0.658	2.06	0.653	0.869	0.537	0.818	0.937
E fixed	1.31	2.38	0.614	2.16	0.846	1.79	0.471	0.964	0.865
F fixed	0.258	0.524	0.357	0.734	0.316	0.239	0.223	0.547	0.929
G fixed	0.82	1.31	0.908	0.989	1.78	1.51	0.615	1.42	1.23
H fixed	0.56	0.949	0.851	0.93	0.812	0.538	0.627	0.906	1.05
I fixed	0.388	0.352	0.246	0.491	0.194	0.159	0.176	0.441	0.412
K fixed	0.663	0.989	2.22	1.03	2.09	1.06	2.11	1.82	2.18
L fixed	0.433	0.565	0.396	0.645	0.416	0.266	0.209	0.485	0.478
M fixed	0.872	0.633	0.332	0.764	0.614	0.328	0.277	0.707	0.54
N fixed	0.464	0.968	0.95	1.18	1.07	0.522	0.473	0.897	1.05
P fixed	7.13	1.76	2.02	0.754	2.01	0.616	0.523	1.29	0.976
Q fixed	1.05	1.02	0.772	1.28	1.28	0.824	0.64	1.07	0.879
R fixed	0.767	1.08	5.17	1.12	2.29	5.66	8.88	2.84	2.51
V fixed	0.804	0.483	0.322	0.695	0.465	0.2	0.222	0.521	0.604
W fixed	0.296	0.468	0.305	0.626	0.467	0.219	0.219	0.491	0.607
Y fixed	0.367	0.468	0.314	0.668	0.543	0.266	0.23	0.582	0.614
pThr fixed	1.28	5.19	0.962	4.17	0.539	0.556	0.521	0.958	1
pTyr fixed	1.47	1.44	1.32	1.97	2.09	0.473	0.485	1.08	1.12

CSNK1A1, construct: Full length (from UniProt P48729)
relative phosphorylation
Conditions	at +1	at +2	at +3	at +4	at -1	at -2	at -3	at -4	at -5
A fixed	0.898	1.02	1	1.11	1.24	2.02	0.811	1.17	1.13
D fixed	0.691	0.553	0.8	1.09	0.696	0.92	3.33	1.38	1.2
E fixed	1.21	0.343	0.994	0.958	1.01	1.44	3.21	1.74	1.17
F fixed	0.725	1.5	1.2	1.18	0.665	0.688	0.558	0.898	1.06
G fixed	0.869	0.952	1.76	1.1	1.08	1.04	0.749	1.11	1
H fixed	1.17	1.65	1.64	1.09	1.17	0.881	0.579	0.933	1.06
I fixed	1.59	1.27	0.695	0.869	0.671	0.81	0.625	0.754	0.829
K fixed	0.509	0.699	0.6	0.782	1.1	0.705	0.633	0.734	0.956
L fixed	1.12	0.726	0.754	0.865	0.76	0.837	0.581	0.677	0.969
M fixed	1.1	0.892	1.01	0.946	1.04	0.897	0.562	0.744	0.901
N fixed	1.15	0.742	0.776	0.737	1.24	1.09	0.831	0.915	0.824
P fixed	0.639	1.09	0.847	0.989	1.14	1.38	0.826	1.09	1.43
Q fixed	1.22	0.626	0.727	0.848	1.61	1.08	0.75	0.706	0.717
R fixed	0.59	0.632	0.552	0.628	1.04	0.824	0.746	0.74	0.768
V fixed	2.02	0.985	0.711	0.923	0.787	0.986	0.595	0.692	0.78
W fixed	0.738	1.59	1.38	1.46	0.898	0.635	0.628	1.67	1.16
Y fixed	0.771	1.73	1.55	1.44	0.839	0.763	0.987	1.04	1.04
pThr fixed	3.36	0.673	1.04	3.07	1.48	5.81	100	10.8	2.93
pTyr fixed	1.32	6.1	4.04	2.48	1.76	3.06	5.64	10.7	3.72

DYRK1B, construct: Full length (from UniProt Q9Y463)
relative phosphorylation
Conditions	at +1	at +2	at +3	at +4	at -1	at -2	at -3	at -4	at -5
A fixed	0.436	0.893	0.7	0.79	1.08	2.23	0.812	0.901	0.902
D fixed	0.147	0.891	0.762	0.879	0.607	0.261	0.56	1.58	0.658
E fixed	0.161	0.8	0.932	0.829	0.626	0.28	0.445	0.719	0.554
F fixed	0.182	1.26	1.04	1.68	0.605	0.346	0.407	0.645	0.816
G fixed	0.957	0.824	1	0.925	1.14	0.889	1.33	0.933	1.15
H fixed	0.249	1.16	1.37	1.11	0.926	0.456	0.748	0.837	1.23
I fixed	0.239	1.26	0.987	1.14	0.495	0.727	0.32	0.607	0.956
K fixed	0.469	0.653	0.621	0.808	1.6	0.623	0.983	1.22	1.5
L fixed	0.222	1.28	1.25	1.1	0.747	0.926	0.491	0.756	0.785
M fixed	0.71	1.06	1.22	1.32	1.04	0.729	0.513	0.718	0.721
N fixed	0.21	1.02	0.991	0.902	0.86	0.806	0.712	0.806	0.903
P fixed	11	0.972	2.32	0.904	1.66	2.48	1.04	1.01	0.988
Q fixed	0.265	0.893	0.88	0.9	1.12	0.584	0.73	0.824	0.851
R fixed	0.947	0.77	0.713	0.811	1.93	3.56	5.96	3.05	2.61
V fixed	0.448	1.24	0.706	0.854	0.672	0.944	0.373	0.544	0.599
W fixed	0.241	1.02	0.742	1.06	0.853	0.723	0.539	0.865	0.8
Y fixed	0.161	1.01	0.77	0.994	1.02	0.43	1.03	0.987	0.983
pThr fixed	0.476	1.01	0.551	0.927	0.454	0.594	0.577	0.891	0.802
pTyr fixed	0.537	0.813	0.705	0.961	0.76	0.433	0.559	0.672	0.849
